# In patent publication US20240309103A1 (Regeneron, published 2024):
# Tests used:
# [1] = target: T1, hNPR1-mFc:hANP or hNPR1-hFc:hANP complex (human, UniProt P01160 124-151); assay: SPR, mAb captured, 37C
# T1 construct: also called human NPR1 complexed to ANP
# Description: (§1) Equilibrium dissociation constant (KD) for different NPR1 reagents binding to purified anti-NPR1 monoclonal antibodies (mAbs) were determined using a real-time surface plasmon resonance based Biacore 4000 biosensor. All binding studies were performed in 10 mM HEPES, 150 mM NaCl, 3 mM EDTA, and 0.05% v/v Surfactant Tween-20, pH 7.4 (HBS-ET) running buffer at 25° C. and 37° C. The Biacore CM5 sensor chip surface was first derivatized by amine coupling with either mouse anti-human Fc specific mAb (GE Healthcare, #BR100839) or goat anti-human Fcy specific polyclonal antibody (Jackson ImmunoResearch Laboratories, #BR-1008-39) to capture anti-NPR1 mAbs.
# [2] = target: T2, mfNPR1-mFc:hANP complex (monkey; human, UniProt P01160 124-151); assay: SPR, mAb captured, 37C
# T2 construct: also called monkey NPR1 complexed to ANP
# Description: as §1
# [3] = target: T3, mfNPR1-mFc (monkey); assay: SPR, mAb captured, 37C
# T3 construct: also called dimeric monkey NPR1
# T3 chain: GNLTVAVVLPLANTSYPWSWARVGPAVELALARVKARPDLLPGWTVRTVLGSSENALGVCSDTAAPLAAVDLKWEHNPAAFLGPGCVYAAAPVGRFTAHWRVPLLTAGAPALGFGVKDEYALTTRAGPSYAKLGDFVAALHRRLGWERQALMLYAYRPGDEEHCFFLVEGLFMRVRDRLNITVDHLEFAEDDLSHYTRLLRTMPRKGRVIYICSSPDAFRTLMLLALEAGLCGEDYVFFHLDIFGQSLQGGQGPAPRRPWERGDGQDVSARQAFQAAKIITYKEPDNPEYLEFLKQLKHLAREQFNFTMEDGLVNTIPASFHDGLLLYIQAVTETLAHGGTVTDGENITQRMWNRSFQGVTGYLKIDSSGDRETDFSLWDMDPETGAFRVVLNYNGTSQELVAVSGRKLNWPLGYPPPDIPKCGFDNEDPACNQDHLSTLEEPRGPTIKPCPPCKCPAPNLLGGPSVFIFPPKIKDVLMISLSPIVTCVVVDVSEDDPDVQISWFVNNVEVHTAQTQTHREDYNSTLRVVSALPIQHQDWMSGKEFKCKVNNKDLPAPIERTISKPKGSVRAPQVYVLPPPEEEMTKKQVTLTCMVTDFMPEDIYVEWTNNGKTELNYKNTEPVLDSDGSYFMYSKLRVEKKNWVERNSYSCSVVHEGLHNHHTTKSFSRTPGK
# Description: as §1
# [4] = target: T4, hNPR1-mFc:hBNP complex (human, UniProt P16860 103-134); assay: SPR, mAb captured, 37C
# T4 construct: also called human NPR1 complexed to BNP
# Description: as §1
# [5] = target: T1, hNPR1-mFc:hANP or hNPR1-hFc:hANP complex; assay: SPR, mAb captured, 25C
# Description: as §1
# [6] = target: T2, mfNPR1-mFc:hANP complex; assay: SPR, mAb captured, 25C
# Description: as §1
# [7] = target: T3, mfNPR1-mFc; assay: SPR, mAb captured, 25C
# Description: as §1
# [8] = target: T5, mfNPR1-mFc:hBNP complex (monkey; human, UniProt P16860 103-134); assay: SPR, mAb captured, 25C
# T5 construct: also called monkey NPR1 complexed to BNP
# Description: as §1
# [9] = target: T4, hNPR1-mFc:hBNP complex; assay: SPR, mAb captured, 25C
# Description: as §1
binder,measurement,setting,value
"mAb25508 (antibody, human IgG4, V domains shown) VH: EVQLVESGGGVVRPGGSLRLSCAASGFNVDDYGMSWVRQIPGKGLEWISGINWNGGRIYYADSMKGRITISRDNAKNSLYLQMNSLRAEDTALYHCVRDQWLVRGLDYWGQGTLVTVSS VL: DIQMTQSPSSLSASVGDRVTITCRASQGIYNYLAWFQQKPGKAPKSLIYAASSLQSGVPSKFSGSGSGTDFTLTISSLQPEDFATYYCQQYNTYPYTFGQGTKLEIK",100 nM Ag Bound (RU),[1],230 RU
same,Kd,[1],506 pM
same,koff,[1],0.000148 s⁻¹
same,kon,[1],293000 M⁻¹ s⁻¹
same,t½,[1],1.3 h
same,100 nM Ag Bound (RU),[2],262 RU
same,Kd,[2],355 pM
same,koff,[2],0.000146 s⁻¹
same,kon,[2],411000 M⁻¹ s⁻¹
same,t½,[2],1.32 h
same,100 nM Ag Bound (RU),[3],268 RU
same,Kd,[3],132 pM
same,koff,[3],8.36e-05 s⁻¹
same,kon,[3],634000 M⁻¹ s⁻¹
same,t½,[3],2.3 h
same,100 nM Ag Bound (RU),[4],236 RU
same,Kd,[4],466 pM
same,koff,[4],0.000164 s⁻¹
same,kon,[4],352000 M⁻¹ s⁻¹
same,t½,[4],1.17 h
same,100 nM Ag Bound (RU),[5],199 RU
same,Kd,[5],340 pM
same,koff,[5],8.97e-05 s⁻¹
same,kon,[5],264000 M⁻¹ s⁻¹
same,t½,[5],2.15 h
same,100 nM Ag Bound (RU),[6],224 RU
same,Kd,[6],233 pM
same,koff,[6],7.32e-05 s⁻¹
same,kon,[6],314000 M⁻¹ s⁻¹
same,t½,[6],2.63 h
same,100 nM Ag Bound (RU),[7],230 RU
same,Kd,[7],116 pM
same,koff,[7],5.98e-05 s⁻¹
same,kon,[7],515000 M⁻¹ s⁻¹
same,t½,[7],3.22 h
same,100 nM Ag Bound (RU),[8],229 RU
same,Kd,[8],290 pM
same,koff,[8],8.91e-05 s⁻¹
same,kon,[8],308000 M⁻¹ s⁻¹
same,t½,[8],2.16 h
same,100 nM Ag Bound (RU),[9],200 RU
same,Kd,[9],343 pM
same,koff,[9],8.57e-05 s⁻¹
same,kon,[9],250000 M⁻¹ s⁻¹
same,t½,[9],2.24 h
"mAb25498 (antibody, human IgG4, V domains shown) VH: QVQLVESGGGVVQPGRSLRLSCVASGFTFSSYGMVWVRQTPGKGLEWVAVIWHDGTNNYYADSVKGRFTISRDNSKNTLYLQMNSLRAEDTAVYYCAREPWLVRGYYYYAMDVWGQGTTVTVSS VL: not shown",100 nM Ag Bound (RU),[1],74 RU
same,Kd,[1],13600 pM
same,koff,[1],0.00072 s⁻¹
same,kon,[1],53000 M⁻¹ s⁻¹
same,t½,[1],0.267 h
same,100 nM Ag Bound (RU),[2],114 RU
same,Kd,[2],8890 pM
same,koff,[2],0.000445 s⁻¹
same,kon,[2],50100 M⁻¹ s⁻¹
same,t½,[2],0.432 h
same,100 nM Ag Bound (RU),[3],170 RU
same,Kd,[3],4060 pM
same,koff,[3],0.000372 s⁻¹
same,kon,[3],91600 M⁻¹ s⁻¹
same,t½,[3],0.518 h
same,100 nM Ag Bound (RU),[4],76 RU
same,Kd,[4],17900 pM
same,koff,[4],0.000948 s⁻¹
same,kon,[4],52900 M⁻¹ s⁻¹
same,t½,[4],0.203 h
same,100 nM Ag Bound (RU),[5],52 RU
same,Kd,[5],6930 pM
same,koff,[5],0.000317 s⁻¹
same,kon,[5],45800 M⁻¹ s⁻¹
same,t½,[5],0.607 h
same,100 nM Ag Bound (RU),[6],81 RU
same,Kd,[6],2680 pM
same,koff,[6],0.000112 s⁻¹
same,kon,[6],41900 M⁻¹ s⁻¹
same,t½,[6],1.72 h
same,100 nM Ag Bound (RU),[7],128 RU
same,Kd,[7],2450 pM
same,koff,[7],0.000177 s⁻¹
same,kon,[7],72000 M⁻¹ s⁻¹
same,t½,[7],1.09 h
same,100 nM Ag Bound (RU),[8],81 RU
same,Kd,[8],2530 pM
same,koff,[8],0.000109 s⁻¹
same,kon,[8],43200 M⁻¹ s⁻¹
same,t½,[8],1.77 h
same,100 nM Ag Bound (RU),[9],55 RU
same,Kd,[9],5280 pM
same,koff,[9],0.000256 s⁻¹
same,kon,[9],48500 M⁻¹ s⁻¹
same,t½,[9],0.752 h
"mAb25497 (antibody, human IgG4, V domains shown) VH: QVQLVQSGAEVKEPGASVKVSCKASGYTFTDYYIHWVRQAPGQGLEWMGWINLNSGGKNHAQKFQGRVTVTSDTSINTAYIELGRLRGDDTAVYYCSRGGGSHYYYYYHGMDVWGQGTTVTVSS VL: DIQMTQSPSSLSASVGDRITITCRASHSIDSYLNWYQQKPGKAPKLLIYPASTLQSGVPSRFSGSGSGTDFTLTISSLQPEDSAIYYCQQSYSTPLTFGGGTKVEIK",100 nM Ag Bound (RU),[1],60 RU
same,Kd,[1],2090 pM
same,koff,[1],0.000102 s⁻¹
same,kon,[1],48500 M⁻¹ s⁻¹
same,t½,[1],1.9 h
same,100 nM Ag Bound (RU),[2],102 RU
same,Kd,[2],2600 pM
same,koff,[2],0.000152 s⁻¹
same,kon,[2],58400 M⁻¹ s⁻¹
same,t½,[2],1.27 h
same,100 nM Ag Bound (RU),[3],79 RU
same,Kd,[3],5200 pM
same,koff,[3],0.000221 s⁻¹
same,kon,[3],42500 M⁻¹ s⁻¹
same,t½,[3],0.872 h
same,100 nM Ag Bound (RU),[4],59 RU
same,Kd,[4],2350 pM
same,koff,[4],0.000116 s⁻¹
same,kon,[4],49200 M⁻¹ s⁻¹
same,t½,[4],1.66 h
same,100 nM Ag Bound (RU),[5],59 RU
same,Kd,[5],279 pM
same,koff,[5],4.56e-05 s⁻¹
same,kon,[5],163000 M⁻¹ s⁻¹
same,t½,[5],4.22 h
same,100 nM Ag Bound (RU),[6],95 RU
same,Kd,[6],240 pM
same,koff,[6],3.75e-05 s⁻¹
same,kon,[6],156000 M⁻¹ s⁻¹
same,t½,[6],5.13 h
same,100 nM Ag Bound (RU),[7],76 RU
same,Kd,[7],337 pM
same,koff,[7],5.79e-05 s⁻¹
same,kon,[7],172000 M⁻¹ s⁻¹
same,t½,[7],3.32 h
same,100 nM Ag Bound (RU),[8],93 RU
same,Kd,[8],320 pM
same,koff,[8],4.47e-05 s⁻¹
same,kon,[8],140000 M⁻¹ s⁻¹
same,t½,[8],4.31 h
same,100 nM Ag Bound (RU),[9],59 RU
same,Kd,[9],358 pM
same,koff,[9],5.49e-05 s⁻¹
same,kon,[9],153000 M⁻¹ s⁻¹
same,t½,[9],3.51 h
